Reference: PMC11480477, “STIC2 selectively binds ribosome-nascent chain complexes in the cotranslational sorting of Arabidopsis thylakoid proteins” (The EMBO Journal, 2024)
Residue numbers refer to the chain shown, from its start.

T1: GST-STIC2 E131G (A. thaliana, UniProt O82230 49-182, E131G)
T1 construct: STIC2 of A. thaliana, mature protein aa 49–182, in pGEX4T3; The results speak only of E131; source: E. coli Rosetta2 (DE3) or BL21 (DE3), purified (glutathione sepharose); not shown: GST, N-terminal, kept
T1 sequence (looked up): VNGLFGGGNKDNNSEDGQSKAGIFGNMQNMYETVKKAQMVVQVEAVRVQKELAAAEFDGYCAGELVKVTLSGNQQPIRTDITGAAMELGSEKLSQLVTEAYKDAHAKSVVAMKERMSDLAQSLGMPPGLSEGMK

T2: GST-STIC2 E112A K115A (A. thaliana, UniProt O82230 49-182, E112A | K115A)
T2 construct: STIC2 of A. thaliana, mature protein aa 49–182, in pGEX4T3; also called STIC2 E112A K115A double mutant; source: E. coli Rosetta2 (DE3) or BL21 (DE3), purified (glutathione sepharose); not shown: GST, N-terminal, kept
T2 sequence (looked up): T1 sequence (looked up) with E64A, K67A, G83E

T3: GST-STIC2 E112A (A. thaliana, UniProt O82230 49-182, E112A)
T3 construct: STIC2 of A. thaliana, mature protein aa 49–182, in pGEX4T3; source: E. coli Rosetta2 (DE3) or BL21 (DE3), purified (glutathione sepharose); not shown: GST, N-terminal, kept
T3 sequence (looked up): T1 sequence (looked up) with E64A, G83E

T4: Alb4C-His E407G (UniProt Q9FYL3 334-499, E407G)
T4 construct: Alb4, C-terminal region aa 334–499, in pET29b; source: E. coli Rosetta2 (DE3) or BL21 (DE3), purified (HisTrap HP); not shown: His tag, C-terminal, kept
T4 sequence (looked up): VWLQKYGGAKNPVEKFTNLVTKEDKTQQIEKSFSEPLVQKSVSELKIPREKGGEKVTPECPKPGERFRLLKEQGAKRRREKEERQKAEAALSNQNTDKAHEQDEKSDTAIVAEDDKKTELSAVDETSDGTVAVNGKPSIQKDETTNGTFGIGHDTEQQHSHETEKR

T5: Alb4C-His F400G (UniProt Q9FYL3 334-499, F400G)
T5 construct: Alb4, C-terminal region aa 334–499, in pET29b; source: E. coli Rosetta2 (DE3) or BL21 (DE3), purified (HisTrap HP); not shown: His tag, C-terminal, kept
T5 sequence (looked up): T4 sequence (looked up) with F67G, G74E

T6: Alb4C-His R399G (UniProt Q9FYL3 334-499, R399G)
T6 construct: Alb4, C-terminal region aa 334–499, in pET29b; source: E. coli Rosetta2 (DE3) or BL21 (DE3), purified (HisTrap HP); not shown: His tag, C-terminal, kept
T6 sequence (looked up): T4 sequence (looked up) with R66G, G74E

T7: Alb4C-His R410G (UniProt Q9FYL3 334-499, R410G)
T7 construct: Alb4, C-terminal region aa 334–499, in pET29b; source: E. coli Rosetta2 (DE3) or BL21 (DE3), purified (HisTrap HP); not shown: His tag, C-terminal, kept
T7 sequence (looked up): T4 sequence (looked up) with G74E, R77G

T8: Alb4C-His (aa 334–499) (UniProt Q9FYL3 334-499)
T8 construct: Alb4, stromal C-terminal region aa 334–499, in pET29b; also called C-terminal region of Alb4; source: E. coli Rosetta2 (DE3) or BL21 (DE3), purified (HisTrap HP); not shown: His tag, C-terminal, kept
T8 sequence (looked up): T4 sequence (looked up) with G74E

B1: Alb4 peptide aa 394–408 (15mer pepspot) (peptide, UniProt Q9FYL3 394-408, looked up)
peptide: PKPGERFRLLKEQEA
notes: largely Motif III; source: synthetic peptide, spot on a membrane (JPT Peptide Technologies)
B2: Alb3 peptide aa 386–400 (15mer pepspot) (peptide, UniProt Q8LBP4 386-400, looked up)
peptide: GERFRQLKEQEKRSK
notes: as for B1
B3: Alb3C-His (aa 350–462) (domain or fragment, UniProt Q8LBP4 350-462, looked up)
chain: VYLRKLGGAKPNMDENASKIISAGRAKRSIAQPDDAGERFRQLKEQEKRSKKNKAVAKDTVELVEESQSESEEGSDDEEEEAREGALASSTTSKPLPEVGQRRSKRSKRKRTV
notes: Alb3, stromal C-terminal region aa 350–462, in pET29b; also called C-terminal region of Alb3; source: E. coli Rosetta2 (DE3) or BL21 (DE3), purified (HisTrap HP); not shown: His tag, C-terminal, kept
B4: GST-STIC2 (natural protein, A. thaliana, UniProt O82230 49-182, looked up)
chain: T1 sequence (looked up) with G83E
notes: STIC2 of A. thaliana, mature protein aa 49–182, in pGEX4T3; also called pGEX4T3-GST-STIC2; source: E. coli Rosetta2 (DE3) or BL21 (DE3), purified (glutathione sepharose); not shown: GST, N-terminal, kept
B5: His-STIC2 (mature STIC2, aa 49–182) (natural protein, A. thaliana, UniProt O82230 49-182, looked up)
chain: T1 sequence (looked up) with G83E
notes: STIC2 of A. thaliana, mature protein aa 49–182 (transit peptide predicted with TargetP), in pET-Duet1; The N-terminal place of the tag is read from the printed name His-STIC2; also called recombinant mature His-STIC2; suppressor of tic40 protein 2; source: E. coli Rosetta2 (DE3) or BL21 (DE3), purified (HisTrap HP, native conditions); not shown: His tag, N-terminal, kept
B6: GST-STIC2 K115A (natural protein, A. thaliana, UniProt O82230 49-182, looked up)
chain: T1 sequence (looked up) with K67A, G83E
notes: STIC2 of A. thaliana, mature protein aa 49–182, in pGEX4T3; source: E. coli Rosetta2 (DE3) or BL21 (DE3), purified (glutathione sepharose); not shown: GST, N-terminal, kept

Tests used:
Details in all cases: both partners purified
[1] = target: B5; assay: peptide or protein array; pepspot membranes with 15mer peptides of Alb3 (aa 155–208, 282–462) and Alb4 (aa 139–192, 266–499); His-STIC2 5 µg/ml for 3 h at room temperature, TBST washes, detection with anti-His HRP conjugate
[2] = target: B5; assay: ITC; His-STIC2 titrated (1.5 mM into 0.15 mM Alb3C-His or Alb3CΔIII-His; 1 mM into 0.1 mM Alb4C-His or Alb4CΔIII-His); 20 mM HEPES, 150 mM NaCl, pH 8.0, 25 °C; one-site binding model; two to five independent experiments
[3] = target: T1, GST-STIC2 E131G; assay: pull-down; 20 µg GST-STIC2 variants with 20 µg Alb3C-His in PBS with 160 mM NaCl, 120 µl, room temperature; glutathione sepharose; eluates by immunoblot, coelution quantified with ImageJ
[4] = target: T2, GST-STIC2 E112A K115A; assay: as above
[5] = target: T3, GST-STIC2 E112A; assay: as above
[6] = target: T4, Alb4C-His E407G; assay: pull-down; 20 µg GST-STIC2 variants with 20 µg Alb4C-His variants in PBS, 120 µl, room temperature; glutathione sepharose; eluates by immunoblot, coelution quantified with ImageJ
[7] = target: T5, Alb4C-His F400G; assay: as above
[8] = target: T6, Alb4C-His R399G; assay: as above
[9] = target: T7, Alb4C-His R410G; assay: as above
[10] = target: T8, Alb4C-His (aa 334–499); assay: ITC; His-STIC2 titrated (1.5 mM into 0.15 mM Alb3C-His or Alb3CΔIII-His; 1 mM into 0.1 mM Alb4C-His or Alb4CΔIII-His); 20 mM HEPES, 150 mM NaCl, pH 8.0, 25 °C; one-site binding model; two to five independent experiments
[11] = target: T8, Alb4C-His (aa 334–499); assay: pull-down; 20 µg GST-STIC2 variants with 20 µg Alb4C-His variants in PBS, 120 µl, room temperature; glutathione sepharose; eluates by immunoblot, coelution quantified with ImageJ

Binder: B1
binding result [1]: binds

Binder: B2
binding result [1]: binds

Binder: B3
Kd [2]: 150 µM | percent reduction of binding against GST-STIC2 [3]: ~80% | percent reduction of binding against GST-STIC2 [4]: ~80% | percent reduction of binding against GST-STIC2 [5]: ~15%

Binder: B4
binding result [6]: binds | binding result [7]: binds | binding result [8]: binds | binding result [9]: binds

Binder: B5
Kd [10]: 17 µM

Binder: B6
binding result [11]: binds
